Results reported in paper PMC12800249 (Scientific Reports, 2025).

Tests used:
[1] = molecular target: delta opioid receptor (DOR) (Rattus norvegicus, UniProt P33533); test: Intracellular cAMP assay; format: cell-based; details: FRSK cells; 10 μM forskolin, 1–1000 nM peptide, 30 min; cAMP-Glo
MOR = details: literature statement; cited from earlier work

Sequence of delta opioid receptor (DOR) (P33533 whole entry): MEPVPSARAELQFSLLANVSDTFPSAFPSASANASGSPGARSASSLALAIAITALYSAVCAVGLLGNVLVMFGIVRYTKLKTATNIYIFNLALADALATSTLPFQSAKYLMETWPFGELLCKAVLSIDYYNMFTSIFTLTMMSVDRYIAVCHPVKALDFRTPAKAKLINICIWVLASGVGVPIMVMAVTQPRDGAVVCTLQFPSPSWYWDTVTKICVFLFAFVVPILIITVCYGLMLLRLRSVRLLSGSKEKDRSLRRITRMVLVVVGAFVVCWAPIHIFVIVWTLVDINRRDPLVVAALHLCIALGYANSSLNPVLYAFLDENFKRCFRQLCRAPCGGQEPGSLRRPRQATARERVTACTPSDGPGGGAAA

β-endorphin
effect on forskolin-induced intracellular cAMP [1]: attenuated this forskolin-induced increase in cAMP concentration in a dose-dependent manner
receptor preference (MOR) (MOR): primary ligand for MOR
